Source: patent publication US20190330365A1 (University of California, published 2019)
Several values for one entry are separate records, joined by “and”; a condition that tells them apart may be missing. Equal entries are not always repeated. Values belong to the binder of their own block, whether it stands above or below them.

Key:
[1] = target: T1, EphA2, murine, on CT26 cells (mouse, UniProt Q03145 26-977); assay: FACS on murine colon cancer cell line CT26 that expresses EphA2
T1 construct: whole, on cells; also called murine antigen

[2] = target: T2, Ephrin type-A receptor 2 (EphA2), human, on cells (human, UniProt P29317 24-976); assay: FACS
T2 construct: whole, on cells; also called guide antigen

[3] = target: T3, Low-density lipoprotein receptor-related protein 6 (LRP6), human, on cells (human, UniProt O75581 20-1613); assay: apparent KD, flow cytometry on HEK293 cells that express LRP6, curve fit
T3 construct: whole, on cells; also called effector antigen
Procedure: FIGS. 7A-7E depict the results illustrating characterization of anti-LRP6 scFvs and derived bsAbs. FIG. 7A depicts the results of anti-LRP6 scFv-phage screening by flow cytometry analysis. Individual scFv-phage clones were separately amplified from the 3rd round panning output against LRP6E1E2 or LRP6E3E4 domain. scFv-phage particles were incubated with parental HEK293 or LRP6-transfected HEK293 cells and detected by biotinylated anti-M13 IgG and PE-labeled streptavidin. Relative MFI values (folds of phage binding to LRP6+ cells against LRP6− cells) were plotted on a graph. FIGS. 7B and 7C depict the results of flow cytometry analysis for binding kinetics of E34N19 (B) or E12N21 (C) scFv-Fc to HEK293 cells. The apparent KD was calculated based on the non-linear curve fittings by Prism 5 program. FIG. 7D depicts the results of cell-binding analysis of mono- or bi-specific anti-LRP6 antibodies. Binding of E34N19 scFv-Fc, E34N19 IgG, H/6 TaFv-Fc, 6/H bsIgG, or H3 IgG (each 100 nM) to HEK293 cells originally expressing ALCAM was analyzed by flow cytometry. […]
The apparent antibody binding affinity was measured on target cells by FACS as described (An, Zhu). […] After 1 hr incubation, cells were washed and analyzed by FACS as described above. The apparent KD was determined by a curve fit method using MFI values as described (Benedict, An, Zhu).

[4] = target: T3, Low-density lipoprotein …; assay: cell-based or functional assay
[5] = target: Low-density lipoprotein receptor-related protein 6 (LRP6), human, on cells (human) (UniProt O75581); assay: cell-based or functional assay
[6] = target: T4, Activated leukocyte cell adhesion molecule (ALCAM), on cells (human, UniProt Q13740 28-583); assay: apparent KD on cells
T4 construct: whole, on cells; also called guide antigen
T4 sequence (looked up): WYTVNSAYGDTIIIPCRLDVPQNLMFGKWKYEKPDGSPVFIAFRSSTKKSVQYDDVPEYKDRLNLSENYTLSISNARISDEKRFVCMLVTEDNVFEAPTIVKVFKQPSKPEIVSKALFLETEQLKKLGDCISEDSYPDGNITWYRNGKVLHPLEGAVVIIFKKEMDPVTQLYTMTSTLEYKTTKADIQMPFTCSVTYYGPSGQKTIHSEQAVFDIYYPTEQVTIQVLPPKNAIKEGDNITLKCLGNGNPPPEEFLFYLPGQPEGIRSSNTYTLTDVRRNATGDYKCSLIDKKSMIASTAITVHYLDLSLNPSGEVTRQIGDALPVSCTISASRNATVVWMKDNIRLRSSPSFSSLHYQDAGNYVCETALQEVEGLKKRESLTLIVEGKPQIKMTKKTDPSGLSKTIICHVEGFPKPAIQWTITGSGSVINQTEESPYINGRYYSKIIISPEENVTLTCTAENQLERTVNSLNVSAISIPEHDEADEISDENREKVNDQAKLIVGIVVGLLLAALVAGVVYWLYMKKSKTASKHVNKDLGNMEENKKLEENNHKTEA

T3 sequence (O75581 20-1613): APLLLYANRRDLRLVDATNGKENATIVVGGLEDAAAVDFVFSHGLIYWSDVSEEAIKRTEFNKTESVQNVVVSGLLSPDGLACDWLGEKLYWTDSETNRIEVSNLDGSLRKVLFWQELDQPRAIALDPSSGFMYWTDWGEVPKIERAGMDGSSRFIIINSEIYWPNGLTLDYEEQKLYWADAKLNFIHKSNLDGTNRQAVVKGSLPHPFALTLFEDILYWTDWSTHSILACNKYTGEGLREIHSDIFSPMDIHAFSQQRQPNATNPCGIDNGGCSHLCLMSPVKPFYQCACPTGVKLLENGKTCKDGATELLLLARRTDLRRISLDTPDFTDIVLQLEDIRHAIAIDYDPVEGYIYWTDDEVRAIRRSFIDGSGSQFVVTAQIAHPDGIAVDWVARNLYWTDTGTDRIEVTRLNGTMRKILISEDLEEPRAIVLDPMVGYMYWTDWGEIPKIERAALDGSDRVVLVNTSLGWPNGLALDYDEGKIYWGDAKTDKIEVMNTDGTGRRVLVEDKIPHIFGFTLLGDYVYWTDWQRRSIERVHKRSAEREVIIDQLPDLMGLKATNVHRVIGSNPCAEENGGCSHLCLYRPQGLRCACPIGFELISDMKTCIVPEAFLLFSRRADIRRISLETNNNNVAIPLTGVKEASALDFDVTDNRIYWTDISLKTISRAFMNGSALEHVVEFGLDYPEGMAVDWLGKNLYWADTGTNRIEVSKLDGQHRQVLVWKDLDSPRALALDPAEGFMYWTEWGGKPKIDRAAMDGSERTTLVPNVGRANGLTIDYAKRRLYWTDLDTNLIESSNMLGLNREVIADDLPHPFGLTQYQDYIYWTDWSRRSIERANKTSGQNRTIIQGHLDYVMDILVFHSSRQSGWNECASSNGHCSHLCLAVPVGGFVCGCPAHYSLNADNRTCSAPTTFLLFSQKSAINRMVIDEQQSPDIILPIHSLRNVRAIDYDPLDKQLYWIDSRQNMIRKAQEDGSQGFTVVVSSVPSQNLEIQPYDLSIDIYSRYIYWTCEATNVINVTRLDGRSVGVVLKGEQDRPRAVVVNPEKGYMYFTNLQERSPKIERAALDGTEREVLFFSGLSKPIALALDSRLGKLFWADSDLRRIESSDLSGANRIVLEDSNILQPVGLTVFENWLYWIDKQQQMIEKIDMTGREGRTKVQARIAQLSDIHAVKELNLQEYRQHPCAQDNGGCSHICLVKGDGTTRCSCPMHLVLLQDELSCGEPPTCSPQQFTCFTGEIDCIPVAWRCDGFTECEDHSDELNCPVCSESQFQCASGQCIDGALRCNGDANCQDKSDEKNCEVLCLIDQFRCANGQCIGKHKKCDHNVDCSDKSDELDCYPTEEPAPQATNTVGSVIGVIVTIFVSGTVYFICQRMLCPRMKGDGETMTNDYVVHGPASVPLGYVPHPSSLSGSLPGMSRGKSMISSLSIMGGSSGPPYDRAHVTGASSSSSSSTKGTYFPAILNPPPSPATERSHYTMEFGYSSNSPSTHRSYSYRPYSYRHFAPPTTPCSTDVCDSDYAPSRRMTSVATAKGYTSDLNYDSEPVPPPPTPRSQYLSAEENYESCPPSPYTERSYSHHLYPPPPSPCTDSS
T1 sequence (Q03145 26-977): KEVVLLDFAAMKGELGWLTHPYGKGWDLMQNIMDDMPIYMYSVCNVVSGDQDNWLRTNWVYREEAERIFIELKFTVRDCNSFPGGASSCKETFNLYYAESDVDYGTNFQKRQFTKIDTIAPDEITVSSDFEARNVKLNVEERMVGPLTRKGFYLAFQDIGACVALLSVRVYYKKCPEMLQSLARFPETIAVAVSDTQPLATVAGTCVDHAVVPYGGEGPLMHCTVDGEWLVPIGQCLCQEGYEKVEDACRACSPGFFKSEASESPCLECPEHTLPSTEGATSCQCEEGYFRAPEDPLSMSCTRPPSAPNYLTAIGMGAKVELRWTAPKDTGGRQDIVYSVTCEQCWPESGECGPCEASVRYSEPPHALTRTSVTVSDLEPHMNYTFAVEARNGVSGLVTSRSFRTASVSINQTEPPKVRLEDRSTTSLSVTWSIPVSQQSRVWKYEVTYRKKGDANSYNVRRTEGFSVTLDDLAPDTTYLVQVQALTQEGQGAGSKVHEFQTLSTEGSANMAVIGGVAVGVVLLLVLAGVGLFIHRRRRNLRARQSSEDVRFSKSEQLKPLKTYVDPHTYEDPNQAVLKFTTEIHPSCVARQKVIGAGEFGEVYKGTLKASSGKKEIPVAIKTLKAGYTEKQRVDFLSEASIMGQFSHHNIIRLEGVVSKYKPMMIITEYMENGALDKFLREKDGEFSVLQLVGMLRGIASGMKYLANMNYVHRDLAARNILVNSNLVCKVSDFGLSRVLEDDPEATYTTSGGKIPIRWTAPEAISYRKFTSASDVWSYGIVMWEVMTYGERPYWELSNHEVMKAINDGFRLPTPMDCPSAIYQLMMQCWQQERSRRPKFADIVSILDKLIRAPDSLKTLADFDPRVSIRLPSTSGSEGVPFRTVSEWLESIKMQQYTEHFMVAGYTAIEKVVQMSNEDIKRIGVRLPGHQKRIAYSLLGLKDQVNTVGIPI
Sequence of Low-density lipoprotein receptor-related protein 6 (LRP6), human, on cells (human) (O75581 20-1613): as the sequence (O75581 20-1613) above
T2 sequence (P29317 24-976): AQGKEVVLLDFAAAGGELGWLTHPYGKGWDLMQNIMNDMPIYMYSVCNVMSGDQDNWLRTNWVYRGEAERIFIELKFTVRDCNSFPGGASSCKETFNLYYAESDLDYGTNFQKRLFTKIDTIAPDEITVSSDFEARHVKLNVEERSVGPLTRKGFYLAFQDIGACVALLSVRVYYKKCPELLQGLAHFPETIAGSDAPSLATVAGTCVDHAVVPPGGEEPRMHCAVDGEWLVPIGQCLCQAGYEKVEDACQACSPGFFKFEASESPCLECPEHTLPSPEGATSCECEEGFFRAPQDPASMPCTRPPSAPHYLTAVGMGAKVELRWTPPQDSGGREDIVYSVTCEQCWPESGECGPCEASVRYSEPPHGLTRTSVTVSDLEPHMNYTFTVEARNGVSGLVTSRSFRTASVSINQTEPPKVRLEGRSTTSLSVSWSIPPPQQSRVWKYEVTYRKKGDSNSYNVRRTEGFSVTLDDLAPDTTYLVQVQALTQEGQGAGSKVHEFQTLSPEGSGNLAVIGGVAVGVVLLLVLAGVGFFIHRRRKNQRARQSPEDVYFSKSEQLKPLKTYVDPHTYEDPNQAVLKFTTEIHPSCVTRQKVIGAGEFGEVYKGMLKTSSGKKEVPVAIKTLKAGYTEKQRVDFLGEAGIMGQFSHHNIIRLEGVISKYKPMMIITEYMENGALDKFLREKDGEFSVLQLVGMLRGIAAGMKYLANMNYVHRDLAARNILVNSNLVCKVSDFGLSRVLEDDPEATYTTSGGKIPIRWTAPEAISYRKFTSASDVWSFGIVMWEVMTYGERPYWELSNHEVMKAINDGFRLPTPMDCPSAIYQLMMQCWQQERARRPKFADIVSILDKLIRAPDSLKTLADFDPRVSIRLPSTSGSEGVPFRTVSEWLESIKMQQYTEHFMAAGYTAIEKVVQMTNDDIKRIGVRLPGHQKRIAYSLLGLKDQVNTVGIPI

binding result [1]: binds
binding result [2]: binds
B1: RYR (anti-EphA2 guide antibody, format not stated) (antibody, V domains shown)
VH: QVQLQESGGGLVQPGGSLRLSCAASGFTFSSYSMNWVRQAPGKGLEWVSYISSSSSTIYYADSVKGRFTISRDNAKNSLYLQMNSLRAEDTAVYYCARYRLPDFWSGYPNYGMDVWGQGTTVTVSS
VL: QSVLTQPPSVSGAPGQRVTISCTGSSSNIGAGYDVHWYQQLPGTAPKLLIYGNSNRPSGVPDRFSGSKSGTSASLAITGLQAEDEADYYCQSYDSSLSGHVVFGGGTKLTVL
notes: also called HCA-F1

Kd [3]: ~5.2 nM
IC50, STF reporter, Wnt1-transfected HEK293 [4]: ~3.5 nM
IC50, Wnt1-induced STF reporter activity, HEK293 [4]: 2.63 nM
B2: E12N21 scFv-Fc (Fc fusion)
scFv: QVQLQESGGGLVKPGGSLRLSCAASGFTFSSYWMSWVRQAPGKGLEWVANIKQDGSEKYYVDSVKGRFTISRDNSKNTLYLQMNSLRAEDTAIYYCAKTMTASAWLGGGRDSWGQGTLVTVSSGGGGSGGGGSGGGGSQSVLTQDPAVSVALGQTVRITCQGDSLRTLSTNWYQQKSGQAPVLVIYGNSNRPSGVPDRFSGSSSGNTASLTITGAQAEDEADYYCQSYDNSVRGSRVFGTGTKLTVL
notes: scFv gene cloned into unmodified pFUSE-hIgG1-Fc2; also called monoclonal E12N21; not shown: human IgG1 Fc of vector pFUSE-hIgG1-Fc2 (InvivoGen)

IC50, STF reporter, Wnt3a-transfected HEK293 [5]: 0.0446 nM
B3: E34N19/H3 bsIgG (bispecific antibody, part only; not given: constant regions and CL-scFv linker, not shown: another chain or arm of the molecule; a dimerising Fc or GST; small tags and cut ends)
VH: QVNLRESGGGLVQPGGSLRLSCAASGFTFSSYAMSWVRQAPGKGLEWVSAISGSGGSTYYADSVKGRFTISRDNSKNTLYLQMNSLRAEDTAVYYCAKVRGHGGNSGWVDYWGQGTLVTVSS
VL: QSVLTQDPAVSVALGQTVKITCQGDSLRTYYTSWYQQRPGQAPILVLYANTHRPSSIPDRFSGSSSGTTASLTITGAQAEDEADYYCNSRDSSGNYLFGGGTKLTVL
scFv: QVQLVESGGGLVQPGGSLRLSCAASGFTFSSYAMSWVRQAPGKGLEWVSAISGSGGSTYYADSVKGRFTISRDNSKDTLYLQMNSLRAEDTAVYYCASRSLLDYWGQGTLVTVSSGGGGSGGGGSGGGGSNFMLTQNPAVSVALGQTVRITCQGDSLRSYYASWYQQKPGQAPLLVIYGKNNRPSGIPDRFSGSSSGNTASLTITGAQAEDEADYYCNSRDSSGNPVFGGGTKVTVL

IC50, STF reporter, Wnt3a-transfected HEK293 [4]: 5.2 nM
B4: E34N19 IgG (antibody, V domains shown)
VH: QVNLRESGGGLVQPGGSLRLSCAASGFTFSSYAMSWVRQAPGKGLEWVSAISGSGGSTYYADSVKGRFTISRDNSKNTLYLQMNSLRAEDTAVYYCAKVRGHGGNSGWVDYWGQGTLVTVSS
VL: QSVLTQDPAVSVALGQTVKITCQGDSLRTYYTSWYQQRPGQAPILVLYANTHRPSSIPDRFSGSSSGTTASLTITGAQAEDEADYYCNSRDSSGNYLFGGGTKLTVL

Kd [6]: 0.388 nM
B5: PD32 (anti-ALCAM guide antibody, format not stated) (antibody, V domains shown)
VH: QVQLQESGGGLVQPGGSLRLSCAASGFTFSSYALSWVRQAPGKGLEWVSAISGSGGSTYYAGSVKGRFTISRDNSKNTLYLQMNSLRAEDTAVYYCAKGLIASHWGQGTLVTVSS
VL: SELTQDPAVSVALGQTVRITCQGDSLRSYYASWYQQKPGQAPVLVIYGKNNRPSGIPDRFSGSSSGNTASLTITGAQAEDEADYYCNSRDSSGIHLVFGGGTKLTVL
notes: Called 'guide antibody' and 'corresponding mAbs'; also called GPD32

Kd [6]: 0.00734 nM
B6: H3 IgG (antibody, V domains shown)
VH: QVQLVESGGGLVQPGGSLRLSCAASGFTFSSYAMSWVRQAPGKGLEWVSAISGSGGSTYYADSVKGRFTISRDNSKDTLYLQMNSLRAEDTAVYYCASRSLLDYWGQGTLVTVSS
VL: NFMLTQNPAVSVALGQTVRITCQGDSLRSYYASWYQQKPGQAPLLVIYGKNNRPSGIPDRFSGSSSGNTASLTITGAQAEDEADYYCNSRDSSGNPVFGGGTKVTVL
notes: IgG; also called anti-ALCAM H3 IgG; guide antibody H3

Kd [3]: ~1.4 nM
EC50 (so in the source), STF reporter, Wnt3a, HEK293 [4]: 3.02 nM
IC50, STF reporter, Wnt3a-transfected HEK293 [4]: ~3 nM and 3.43 nM
B7: E34N19 scFv-Fc (Fc fusion)
scFv: QVNLRESGGGLVQPGGSLRLSCAASGFTFSSYAMSWVRQAPGKGLEWVSAISGSGGSTYYADSVKGRFTISRDNSKNTLYLQMNSLRAEDTAVYYCAKVRGHGGNSGWVDYWGQGTLVTVSSGGGGSGGGGSGGGGSQSVLTQDPAVSVALGQTVKITCQGDSLRTYYTSWYQQRPGQAPILVLYANTHRPSSIPDRFSGSSSGTTASLTITGAQAEDEADYYCNSRDSSGNYLFGGGTKLTVL
notes: scFv gene cloned into unmodified pFUSE-hIgG1-Fc2; In some assays biotin-labelled as the detection reagent; also called monospecific E34N19; anti-effector mAb E34N19; not shown: human IgG1 Fc of vector pFUSE-hIgG1-Fc2 (InvivoGen)
